These results are taken from patent publication CN117866905A (BEILAI PHARMACEUTICAL CO LTD, dated 2024).

Assay [1] addresses 生物素化的IL-17A (ACRO Biosystems kit EP-139) (UniProt Q16552). Kind of assay: competition ELISA kit (ACRO EP-139); IL-17RA coated, biotinylated IL-17A, supernatant diluted 5-fold; inhibition of IL-17A/IL-17RA binding.
Assay [2] concerns the target T1, IL-17A重组蛋白(抗原), C端6×His标签 (human, UniProt Q16552 24-155, limits assumed, biotin in the ELISA of paragraph 227 (Biotin-IL-17A-His); site not stated).
T1 sequence: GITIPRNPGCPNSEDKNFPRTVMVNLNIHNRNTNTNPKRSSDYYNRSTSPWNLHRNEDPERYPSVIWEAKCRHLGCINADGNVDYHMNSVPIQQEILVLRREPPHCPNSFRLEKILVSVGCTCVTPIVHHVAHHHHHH
Kind of assay: cell-based or functional assay.

Assay [3] has as its target T1, IL-17A重组蛋白(抗原), C端6×His标签. Kind of assay: ELISA; antibody coated at 2 ug/mL, Biotin-IL-17A-His titrated from 10 ug/mL in 5-fold steps, HRP-streptavidin.

B1: G4-H10:Fc融合蛋白 (IL-17Nb secreted by G4-H10-MSC; VHH-(GGGGS)3-VHH-IgG4 Fc) (Fc fusion)
chain: QVQLVESGGGLVQPGGSLRLSCAASGEKLDYFAIGWFRQAPGKEREVVSCVTSSGSSTNYLSSVKDRFTISIDNAKNTVYLQMNSLKPEDTAIYYCASTILLCSDYISAFGTWGQGTQVTVASGGGGSGGGGSGGGGSEVQLVESGGGLVQPGGSLRLSCAASGFSIHIYAMGWYRQAPGKQRELVATITRGGVTNNADSVKGRFTISRDNAKNTAYLQMNSLKPEDTAVYYCNAGGTNGGYWGQGTQVTVSSAPEFLGGPSVFLFPPKPKDTLMISRTPEVTCVVVDVSQEDPEVQFNWYVDGVEVHNAKTKPREEQFNSTYRVVSVLTVLHQDWLNGKEYKCKVSNKGLPSSIEKTISKAKGQPREPQVYTLPPSQEEMTKNQVSLTCLVKGFYPSDIAVEWESNGQPENNYKTTPPVLDSDGSFFLYSRLTVDKSRWQEGNVFSCSVMHEALHNHYTQKSLSLSLGK
In the case of B1, the 结合抑制率 in assay [1] came to 60%.

B2: 阳性对照抗体依奇珠单抗 (Ixekizumab) (antibody, human IgG4 S228P, kappa, V domains shown)
VH: QVQLVQSGAEVKKPGSSVKVSCKASGYSFTDYHIHWVRQAPGQGLEWMGVINPMYGTTDYNQRFKGRVTITADESTSTAYMELSSLRSEDTAVYYCARYDYFTGTGVYWGQGTLVTVSS
VL: DIVMTQTPLSLSVTPGQPASISCRSSRSLVHSRGNTYLHWYLQKPGQSPQLLIYKVSNRFIGVPDRFSGSGSGTDFTLKISRVEAEDVGVYYCSQSTHLPFTFGQGTKLEIKR
notes: also called 阳性抗体
Consider B2, for which the “阻断Human IL-17A蛋白激活293F-IL-17RA-IL-17Rc-ACT1-NFκB-Luc, IC50” value in assay [2] was found to be 2.23 nM. The molecule also returned an EC50 in assay [3] of 10.1 µg/mL.
